B1: Speckle-type POZ protein (Homo sapiens), O43791 (parent)
chain: MSRVPSPPPPAEMSSGPVAESWCYTQIKVVKFSYMWTINNFSFCREEMGEVIKSSTFSSGANDKLKWCLRVNPKGLDEESKDYLSLYLLLVSCPKSEVRAKFKFSILNAKGEETKAMESQRAYRFVQGKDWGFKKFIRRDFLLDEANGLLPDDKLTLFCEVSVVQDSVNISGQNTMNMVKVPECRLADELGGLWENSRFTDCCLCVAGQEFQAHKAILAARSPVFSAMFEHEMEESKKNRVEINDVEPEVFKEMMCFIYTGKAPNLDKMADDLLAAADKYALERLKVMCEDALCSNLSVENAAEILILADLHSADQLKTQAVDFINYHASDVLETSGWKSMVVSHPHLVAEAYRSLASAQCPFLGPPRKRLKQS
partner: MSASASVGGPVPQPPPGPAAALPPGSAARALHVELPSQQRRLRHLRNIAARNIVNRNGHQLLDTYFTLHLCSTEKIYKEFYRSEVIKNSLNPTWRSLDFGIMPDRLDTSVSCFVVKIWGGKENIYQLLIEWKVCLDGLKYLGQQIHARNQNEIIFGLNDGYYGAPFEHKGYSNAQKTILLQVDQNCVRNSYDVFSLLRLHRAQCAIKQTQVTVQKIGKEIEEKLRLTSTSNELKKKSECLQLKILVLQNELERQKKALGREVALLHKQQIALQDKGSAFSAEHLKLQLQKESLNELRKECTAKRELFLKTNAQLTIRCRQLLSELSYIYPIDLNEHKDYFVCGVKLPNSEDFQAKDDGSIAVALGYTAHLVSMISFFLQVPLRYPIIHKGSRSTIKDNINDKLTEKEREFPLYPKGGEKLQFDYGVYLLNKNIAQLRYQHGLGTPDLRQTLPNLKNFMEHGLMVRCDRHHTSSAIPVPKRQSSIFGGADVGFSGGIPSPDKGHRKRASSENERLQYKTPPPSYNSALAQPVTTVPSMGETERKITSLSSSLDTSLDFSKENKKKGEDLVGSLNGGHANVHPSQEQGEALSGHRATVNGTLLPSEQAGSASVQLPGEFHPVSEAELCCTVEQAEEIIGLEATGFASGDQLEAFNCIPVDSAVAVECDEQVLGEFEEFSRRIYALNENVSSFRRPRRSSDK
B2: Speckle-type POZ protein (Homo sapiens), O43791 (parent)
chain: B1 chain
partner: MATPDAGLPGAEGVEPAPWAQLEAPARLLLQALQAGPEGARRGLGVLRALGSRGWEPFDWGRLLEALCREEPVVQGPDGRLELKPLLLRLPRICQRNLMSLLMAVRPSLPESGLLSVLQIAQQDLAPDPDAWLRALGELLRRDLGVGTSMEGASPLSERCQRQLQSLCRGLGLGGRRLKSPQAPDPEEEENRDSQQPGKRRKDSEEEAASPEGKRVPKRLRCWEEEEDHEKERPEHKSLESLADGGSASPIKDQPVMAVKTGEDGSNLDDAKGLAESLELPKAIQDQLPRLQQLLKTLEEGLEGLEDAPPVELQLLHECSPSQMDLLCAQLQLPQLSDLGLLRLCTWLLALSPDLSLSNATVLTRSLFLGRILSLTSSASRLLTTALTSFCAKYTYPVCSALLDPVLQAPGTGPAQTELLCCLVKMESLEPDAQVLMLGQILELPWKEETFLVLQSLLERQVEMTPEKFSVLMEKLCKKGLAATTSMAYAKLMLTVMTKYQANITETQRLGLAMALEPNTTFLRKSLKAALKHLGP
B3: Speckle-type POZ protein (Homo sapiens), O43791 (parent)
chain: B1 chain
partner: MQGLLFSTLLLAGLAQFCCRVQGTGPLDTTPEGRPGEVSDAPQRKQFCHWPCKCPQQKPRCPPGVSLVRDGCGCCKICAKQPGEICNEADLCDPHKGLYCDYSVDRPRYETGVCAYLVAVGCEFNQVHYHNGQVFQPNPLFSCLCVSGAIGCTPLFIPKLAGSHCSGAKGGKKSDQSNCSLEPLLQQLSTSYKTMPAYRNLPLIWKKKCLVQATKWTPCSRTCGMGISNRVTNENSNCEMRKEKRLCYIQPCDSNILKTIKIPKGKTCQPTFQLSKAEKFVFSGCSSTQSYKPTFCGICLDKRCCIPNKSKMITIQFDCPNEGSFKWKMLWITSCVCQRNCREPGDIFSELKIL
B4: Speckle-type POZ protein (Homo sapiens), O43791 (parent)
chain: B1 chain
partner: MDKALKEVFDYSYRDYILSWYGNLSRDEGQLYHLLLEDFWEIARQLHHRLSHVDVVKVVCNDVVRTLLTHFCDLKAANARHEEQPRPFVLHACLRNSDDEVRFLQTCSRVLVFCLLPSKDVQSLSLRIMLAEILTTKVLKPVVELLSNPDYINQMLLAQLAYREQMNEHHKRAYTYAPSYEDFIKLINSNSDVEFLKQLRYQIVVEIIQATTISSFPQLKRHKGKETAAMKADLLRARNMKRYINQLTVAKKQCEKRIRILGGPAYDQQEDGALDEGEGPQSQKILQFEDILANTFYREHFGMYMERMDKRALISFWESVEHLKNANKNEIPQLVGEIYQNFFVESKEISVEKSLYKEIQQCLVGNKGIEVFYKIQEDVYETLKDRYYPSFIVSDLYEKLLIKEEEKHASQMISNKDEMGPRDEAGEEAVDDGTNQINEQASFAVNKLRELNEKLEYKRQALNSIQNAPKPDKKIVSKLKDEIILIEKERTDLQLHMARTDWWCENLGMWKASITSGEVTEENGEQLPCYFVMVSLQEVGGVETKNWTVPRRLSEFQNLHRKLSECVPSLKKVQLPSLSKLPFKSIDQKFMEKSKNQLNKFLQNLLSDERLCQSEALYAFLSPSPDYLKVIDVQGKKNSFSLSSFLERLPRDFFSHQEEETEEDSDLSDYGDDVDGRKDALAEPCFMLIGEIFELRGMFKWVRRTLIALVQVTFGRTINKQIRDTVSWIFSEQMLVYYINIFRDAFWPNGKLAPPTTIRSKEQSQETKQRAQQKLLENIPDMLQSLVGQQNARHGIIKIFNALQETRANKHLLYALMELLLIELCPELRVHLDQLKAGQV
B5: Speckle-type POZ protein (Homo sapiens), O43791 (parent)
chain: B1 chain
partner: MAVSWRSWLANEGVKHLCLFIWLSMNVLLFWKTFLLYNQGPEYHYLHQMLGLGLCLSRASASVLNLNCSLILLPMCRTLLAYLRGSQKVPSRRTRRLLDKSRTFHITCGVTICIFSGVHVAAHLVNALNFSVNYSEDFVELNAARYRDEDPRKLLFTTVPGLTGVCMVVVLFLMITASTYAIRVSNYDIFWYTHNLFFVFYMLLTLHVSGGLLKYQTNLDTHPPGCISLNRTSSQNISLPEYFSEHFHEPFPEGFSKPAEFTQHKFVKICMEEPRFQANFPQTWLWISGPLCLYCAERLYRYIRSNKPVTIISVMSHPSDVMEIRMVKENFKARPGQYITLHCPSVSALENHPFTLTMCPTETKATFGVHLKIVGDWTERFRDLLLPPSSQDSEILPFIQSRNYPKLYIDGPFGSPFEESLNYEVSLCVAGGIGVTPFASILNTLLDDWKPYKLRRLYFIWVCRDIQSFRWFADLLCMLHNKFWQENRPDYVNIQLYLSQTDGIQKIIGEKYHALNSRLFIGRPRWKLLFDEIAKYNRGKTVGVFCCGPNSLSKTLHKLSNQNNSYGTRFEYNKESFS

Variants of: B1
Conditions: with uvrag_human UVRAG
In the case of F133V, the “effect of a mutation on the interaction” value is reported as “with no effect”.

Variants of: B2
Conditions: with fance_human FANCE
Y87C was tested, and the “effect of a mutation on the interaction” value was “with no effect”.

Variants of: B3
Conditions: with ccn6_human CCN6, O95389
In the case of Y87C, the “effect of a mutation on the interaction” value is reported as “with no effect”.

Variants of: B3
Conditions: with ccn6_human CCN6, O95389
Remark: another data set of the same source
In the case of F133V, the “effect of a mutation on the interaction” value is reported as “with no effect”.

Variants of: B3
Conditions: with ccn6_human CCN6, O95389
Remark: another data set of the same source
In the case of F133L, the “effect of a mutation on the interaction” value is reported as “with no effect”.

Variants of: B3
Conditions: with ccn6_human CCN6, O95389
Remark: another data set of the same source
For F102C, the “effect of a mutation on the interaction” value was “with no effect”.

Variants of: B4
Conditions: with snx25_human SNX25, Q9H3E2
For F133V, the “effect of a mutation on the interaction” value was “with no effect”.

Variants of: B4
Conditions: with snx25_human SNX25, Q9H3E2
Remark: another data set of the same source
With F133L the “effect of a mutation on the interaction” value was “with no effect”.

Variants of: B4
Conditions: with snx25_human SNX25, Q9H3E2
Remark: another data set of the same source
For Y87C, the “effect of a mutation on the interaction” value was “with no effect”.

Variants of: B4
Conditions: with snx25_human SNX25, Q9H3E2
Remark: another data set of the same source
For F102C, the “effect of a mutation on the interaction” value was “with no effect”.

Variants of: B5
Conditions: with nox4_human NOX4, Q9NPH5
With Y87C the “effect of a mutation on the interaction” value was “with no effect”.

From IntAct's records for PubMed 35512704
